# In publication PMC6111841:
# Where “and” joins values, the source holds several entries; their conditions need not be identical. Identical values can stand only once.
# Columns and labels:
# [1] = biological target: HelD (Bacillus subtilis) (UniProt O32215); test: AUC; sedimentation velocity, HelD 5 uM in Buffer A (20 mM HEPES pH 7.5, 150 mM NaCl), 40,000 rpm, 4 °C, c(s) model in SEDFIT
# [2] = biological target: HelD (Bacillus subtilis) (UniProt O32215); test: SEC; Superdex 200 Increase 10/300 GL, Buffer A (20 mM HEPES pH 7.5, 150 mM NaCl), 500 uL purified protein, 0.5 mL/min, 4 °C
# Sequence of HelD (O32215 whole entry): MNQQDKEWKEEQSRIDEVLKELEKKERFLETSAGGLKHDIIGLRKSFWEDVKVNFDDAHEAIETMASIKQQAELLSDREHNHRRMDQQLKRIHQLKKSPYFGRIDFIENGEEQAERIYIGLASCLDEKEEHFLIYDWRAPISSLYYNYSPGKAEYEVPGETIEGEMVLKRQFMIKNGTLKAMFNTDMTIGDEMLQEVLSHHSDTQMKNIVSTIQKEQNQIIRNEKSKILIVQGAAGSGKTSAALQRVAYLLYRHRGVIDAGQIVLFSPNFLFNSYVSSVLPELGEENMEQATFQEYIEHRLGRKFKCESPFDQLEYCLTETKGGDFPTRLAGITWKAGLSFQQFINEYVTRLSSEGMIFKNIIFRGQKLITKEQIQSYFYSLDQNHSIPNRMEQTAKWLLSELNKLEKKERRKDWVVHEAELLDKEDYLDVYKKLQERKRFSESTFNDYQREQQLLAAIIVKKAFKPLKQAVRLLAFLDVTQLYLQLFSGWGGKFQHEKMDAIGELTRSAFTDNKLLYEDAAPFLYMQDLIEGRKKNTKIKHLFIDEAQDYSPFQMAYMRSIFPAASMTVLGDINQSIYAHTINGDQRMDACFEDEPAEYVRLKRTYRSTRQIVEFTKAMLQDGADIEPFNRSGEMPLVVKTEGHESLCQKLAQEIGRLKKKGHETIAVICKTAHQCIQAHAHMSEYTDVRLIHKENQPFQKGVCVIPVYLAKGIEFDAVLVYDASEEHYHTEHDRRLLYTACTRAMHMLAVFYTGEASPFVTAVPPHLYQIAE
substance,measurement,setting,value
HelD (from UniProt O32215 1-774) (natural protein),population of higher order oligomers,[1],20%
same,stoichiometry N,[2],2 and 3
